{"source": "paper PMC5381946", "about": "(PLoS Pathogens, 2017)", "tested_on": "c-Jun;c-Fos (;)", "assay": "EMSA", "settings": "EMSA: 10 mM Tris-HCl pH 7.5, 50 mM NaCl, 5 mM MgCl2, 20 min at 37 C, then 20 min with DNA, 5% native TBE-PAGE at 4 C", "note": "pIC50: −log10 of the molar value.", "data": [{"substance": "AP-1 oligonucleotide", "values": [{"measurement": "pIC50", "setting": "reduced APE1 + inhibitor C10 (IC50 of the compound, not of DNA)", "result": 4.77}, {"measurement": "pIC50", "setting": "reduced APE1 + inhibitor E3330 (IC50 of the compound, not of DNA)", "result": 4.44}]}]}
